Results published in the DeepSol protein solubility set.

test: soluble on expression in E. coli; label from the status in PepcDB or PDB records

| Sequence | soluble on expression in E. coli |
| --- | --- |
| MSTPGTLHIVATPIGNLGDLSPRAQHILRTVTMICAEDTRHTRQLLAHFGIERPLLALHAHNEDTLAERIITRLISGASLALVSDAGTPLISDPGFLLVRAARAAGIRVTPVPGPSALIAALSVSGLPSNRFTFEGFLPAKPTARRDRLTHLAHEPRTLIFYEASHRIAECLTDLATIFGSMRAAVVARELTKIFETVLDGTLATLQTQVANDDNQRKGEFVIIVQGAADQDAAKITEGRRVYALLKEHLPPSSAAKLAAEITGAPRKALYGG | soluble |
| MSTPPAAPLRIALVGDHDPHITAHRAIPLALRLAGEALGLEIAFDWLASDRLPAEPALERYDGFWCVPGSPYRDADAVLRLIAHARGRRRPFLGTCAGFQHTILEFARNALGWQAATHGEEHPHSDQAVIAALPCALLEAREDVRLLRGSRLALAYAADWIEADYHCRYAIAPRFAAELTGGALRASAWSADGAIRAVELEQHPFFVATLFQPERAALAGVLPPLPKAFVEACRTQRRDHPRRGPTPYYAVIFSSHRSAVDDGYAEAAERMLELASRQPGYLGVESVRGANGFGITVSYWDSEAAIRAWSRHAEHRDAQARGRHDWYAGFSARIARVEREYAFPAQPDTAQSPASS | not soluble |
| MSTPRIVVGVSGGVDSSVAAWKLAQQGEPIAGLFMQNWADDGSGDCRAEDDRRDAVAVCGVLGIPFHFRDFSGEYWSDVFEHFLAEYAAGRTPNPDVLCNREVKFKHFLDAAQALGAERIATGHYAQVAHRGGRWRLLRGADRGKDQSYFLHQLGQTQLAATLFPIGDLEKSTLRRIAQDAGLPTHAKKDSTGICFIGERDFREFLGRYLPARTGEIRDPQGQRIAEHPGVFYFTLGQREGLNIGGVRGRAAAPWYVVGKDVANNVLYVDQDRDSPLLQSRWLQSEQAHWVTGAPPARRFSCTAQTRYRQPDESCTVDVQDDGSVQVRFERPQRAVTPGQSLVLYDGEECLGGAVIAATDAPLERQLAGSSFSSEVVALEHHHHHH | not soluble |
| MSTPRPSLTLTLLQAREAAMSFFRPSLNQHGLTEQQWRVIRILRQQGEMESYQLANQACILRPSMTGVLARLERDGIVRRWKAPKDQRRVYVNLTEKGQQCFVSMSGDMEKNYQRIQERFGEEKLAQLLELLNELKKIKP | soluble |
| MSTPSLYEMLTFSFSGELPLEQISERDQLILSVMDNMQRIINCRAGTLAHLPDYGLPDLSLIHQGMAAGIHGLMRQIEETLLRYEPRLSQIQVELLPQPRPGHLNYLIHAQLPDTGWIRFDGVFSPEGRIVLRHLKQQERAY | not soluble |
| MSTPVDLTEGLDGAKLAVTVLMIRDSPTGLEVYVQERVSSMPTFPNATVFPGGGVDPRDFELDGVESEHETFGGPSLMHWARSLGTNRNRARALLFAAARELFEETGTLLATHSDGTPIPDATQYHPQRLALESHRLSLSQVLARHDLTLRSEWLRPSTRWVSPETDEKRFDMFAFVAVQPPGQEPDGNTREAASTGWFSPSLILDGWRAGLIRLVIPTWAQLLILSRFDCVRDVLEFLRRADMTPIIGDPVDDPRFEEFYSFTPPERF | not soluble |
| MSTQEDFLKRLESVTSRLEAIAGQKPALAPKPTNLGGPSAYSLHFFFALQFYFSSSPPTSTMDSLYYSAPRPFNKYPRGYRPVTDSTQDLRSFGGGLRPSSSWSSFPQQVVIDQRSATLPHFPSSCVSPVSPTSPVDRNTNYWTAEEPPRSRRPIRSESNSTLFDNNFSPRELSPLSVASEYCNNPQPASMYGHRSVQSPVPAFQDAPPRGYDNVPPPQSYKQPTHPSPSQRETDFLRNLQRQKAEAHNMSSSWYAGDQSSRQTDFGTLPSPQHYNSNSSDHHPPRRLAKTQSDLSFDSLNNTYFNNTSNHTPSNTFLNHSTVDSHNNSSGQLHNSINNYTASTNGNQGHRLDGFFRNRVIEPNWMTDPPPPKSFREDYIIRNAPLNSNLNSDFERFRLEPTYREPRGNSLVSEQPNFRSYHNDEPTQEQPNPRYQRSSSNFMQQRDPSPVRSPPIISYAQQSNPFSFPNPINQVNYNQEDHSSRVSTGGYQDRRVAQAPKEATTNVYQNVPAAAAVNFREKERPTSQYLESNRNSAAFPNEPIKLTNDRVLRIHPHQQVQDQYHHHQMPEEPHYPQPHQPIQQSQRARIQSPLRDFARLTSPIREVAPQPYHPPQAQNQNQNPERIFSPVESKVFNRSGPTVINGFTSNRHTYNSHTDDFDSRNRRDSSQPPVAIIEPNINVHMPSDPMPYNKPHFGHGHGHSNGNNNVHSVKPTSHYSNPTFSPTSTFSPNSNYDNDNDSDLDIEEMARRALPRYLRDNEKTGRHRNLYGDNLHGILIKNPSLHRSSSKKVVFIDQNKASAAASAGDSGEVPAHVRAYDDAIEEPLANWSKLTDQLGGDLAAVKPKVLAMFASMRNYLWSAAGKSEPSAEEAQKMLTPVINLLGEINNFKDTKRKTPHWNHLNSVAEALPALGWVTVKKTPAPYVKEFIEAAQFYINPILREFKETDPRHVEWTKAWKAVFEEMQKFVRQVHTTGLVWNSAPGAAPDASASAPSAAAPSAPKAPAGPGGPPPPPPPPPADFFANIAPPPVDADKASRDALFASLNQGEGVTSRLKKVTADMQTHKNPNLRGTAVVPAAGASQGGSSPAKPAAPVRKPPHKELENGKQWIVEYFVNDPNIVLDVADKKQTVYIYRCENSVIKVNGKANSITLDGCKKTSVVFDALVAQCETVNCQSVQIQTLGELPTLSIQKTDGCQVYLSKVAQGCEIVTSKSSEMNISVQTNDDGDYSEFPVPEQFKTTFVNGKLVTVVSDIC | not soluble |
| MSTRLTTLSHTSEGHRVSVHYGYDDKGRLTGERQTVENPETGELLWHHETGHAYNEQGLANRVTPDSLPPVEWLTYGSGYLAGMKLGGTPLLEFTRDRLHRETVRSFGSMAGSNAAYKLTSTYTPAGQLQSQHLNSLVYDRDYGWNDNGDLVRISGPRQTREYGYSATGRLESVRTLAPDLDIRIPYATDPAGNRLPDPELHPDSTLTVWPDNRIAEDAHYVYRHDEYGRLTEKTDRIPAGVIRTDDERTHHYHYDSQHRLVFYTRIQHGEPLVESRYLYDPLGRRMAKRVWRRERDLTGWMSLSRKPEVTWYGWDGDRLTTVQTDTTRIQTVYEPGSFTPLIRVETENGEREKAQRRSLAETLQQEGSENGHGVVFPAELVRLLDRLEEEIRADRVSSESRAWLAQCGLTVEQLARQVEPEYTPARKVHFYHCDHRGLPLALISEDGNTAWRGEYDEWGNQLNEENPHHLHQPYRLPGQQHDEESGLYYNRHRHYDPLQGRYITPDPIGLRGGWNMYQYPLNPIQVIDPMGLDAIENMTSGGLIYAVSGVPGLIAANSITNSAYQFGYDMDAIVGGAHNGAADAMRHCYLMCRMTKTFGSTIADVIGKNHEAAGDRQGQPAKERIMDLKNNTVGIACGDFSAKCSDACIEKYNTGQLFGLDGIKADNPIKAKQGSSDASNYLEHHHHHH | not soluble |
| MSTSGSGGGNTPDLSKENVASSPNANPKKNADTESSGGSKNNRQRRRSNTKGDGSNSRNGSRTNSVSNSKNQSNRKDWTDRKSFSQGGINVKSKSPGDDHKRTRSSNSQSAKRNARDSTRTMSQASNGEGLDYSDEYELDEPFSDSDDEDSRPKKPEKMSLTVARGRIRTLSGTVPVVGYSPRWGGPTMCVSCLEFFDLPEQISGFADHLLKEHKIVVSEMNLIVDPKRYIEHWRQRFAKESIDKIFPRIEPSEGDSYFGETDYYYLMSENVAEDRSLRQRLAMRRLEEALQCQQREREDTSFQLQCIFCRYNARGNRSKIIHHLYMIHHLNLGSPDNLVFVTEYIEHLKEKLHRNECIYCEKIFPDRNTLMDHMRKRNHREVNPKNHYYDKFYIINYLELGKRWLDVLAEDFEDTMPTFQDSDEEEEDNEWCEWQEDNLDADETRVVCLLCDASEDNAQSLLEHMKTTHEFDLLKNVSDDKLNSYQRLRLINYIRKQNYHADCWVCQKTEFENPLALQKHILEHKPLSHLPDASIWDTEENLVPIFGNDHFLWMLESILEENEITCSSDDEGESEERFSKLVLESKSNTVEGVIAEDLPELSELNEDDLNALM | not soluble |
| MSTSLVDRLWYGQGRPLALLTPLAWLYRAVSESRRRKAWHARNESLPVPVVVVGNITAGGTGKSPLTASLVQCMNQHGWKPVILSRGYGGKSSQYPLLVADGTPAGVCGDEPLMLARATGCPVVVDPDRCRGARWALENGLGDVLICDDGLQHYRLPRDIELAVFDARRGTGNGAIIPVGPLREPVERLNSVDFVVLNGAEFPEAGETIESFAGVDHPEIHAMELVPSALVNLNSGETLSPEQLKGKPVRAVAGIGNPGRFFETLRNLGAHVNEVPFPDHHHFRPEDLASGALEWLVMTAKDAVKCHGFAPDNAWVLTVQARLSEPFEQHFLERLRASSGQLQTDISEESNHGLEHHHHHH | not soluble |
| MSTSSHTVLLIQTSPRLDSRTWGDYESVTDALDALCKMFEDFLSKKSAAPVTYDVSQVYEFLDKLSDVSMMIFNRETGQYIGRTRAWIKQQVYEMMRGRCQHPEGGEKVIVGY | not soluble |
| MSTVVEKSGEAKPGKVEVGVKLRGAEKVARIPVKIIPTEELPKKPDWIRVRIPVSPEVDRIKQLLRKHKLHSVCEEASCPNLGECFSGGTATFMIMGDICTRRCPFCDVGHGRPKPLDVDEPTNLAIAIADLRLKYVVITSVDRDDLRDGGAQHFADCLREIRKLSPGIQLETLVPDYRGRMDIALEITANEPPDVFNHNLETVPRLYRSSRPGSDFEWSLDLLQKFKQMVPHVPTKSGLMLGLGETDDEVIEVMQRMREHDIDMLTLGQYLQPSRNHLPVQRFVHPDTFAWFAEEGEKMGFKNVASGPLVRSSYHADQQAHGNKIG | not soluble |
| MSVESSNQTTSLSSYLLKCAFSFGTAPPSLSPPSSTGSYEEADFSRFVQQNETGHKLTSYQSLANRDPCTIPDELHQEMKSLKKKEEAFKTSLCGFHRRGQKCAYGEKCKFAHSVHELRFPQTKRNHRNYKTVLCNNFSTTGHCKYGIRCQFIHRSMDSTSSNQSNETENITIDLNVQSDVFRAFALDSTSSLPNWHCSALLH | not soluble |
| MSVFMDLNIINSSDKNRLKHIIETAAHLGYSTVAINYVVEPLQKKQEIPNPQSISDLFDKFPVVQGKSSPIKVLNRLTIVASDASHFRPTNEYKKFDLVAVYPKTEKLFHAACMTFDVDIICIAVTEKQPFHFKRAPVNGAIDRGIFFETCYAAAIRDSITRRYTIANAICLMEICKGKNVIVSSGAERQLELRGPYDIANLGLVFSLSEGDAKAAVSTNCRSVLLHGETRATASGVIHTMKKPQILQKEEEETPAAKKARTELA | soluble |
| MSVFSLKIDIADNKFFNGETSPLFSQSQAKLARQFHQKIAGYRPTPLCALDDLANLFGVKKILVKDESKRFGLNAFKMLGGAYAIAQLLCEKYHLDIETLSFEHLKNAIGEKMTFATTTDGNHGRGVAWAAQQLGQNAVIYMPKGSAQERVDAILNLGAECIVTDMNYDDTVRLTMQHAQQHGWEVVQDTAWEGYTKIPTWIMQGYATLADEAVEQMREMGVTPTHVLLQAGVGAMAGGVLGYLVDVYSPQNLHSIIVEPDKADCIYRSGVKGDIVNVGGDMATIMAGLACGEPNPLGWEILRNCATQFISCQDSVAALGMRVLGNPYGNDPRIISGESGAVGLGVLAAVHYHPQRQSLMEKLALNKDAVVLVISTEGDTDVKHYREVVWEGKHAVAP | not soluble |
| MSVITPTSSIAANDHRAQFLGLLDTSLSQNSLIKLVLAKYVGSEADLQRIIIKPLTVKEQPCLSFVYRYKTRDITKNFPLAEAVAVIASLIPESFKNAHLLSLSDEVQLEYSKKGKTTLFKSKAQQEREAPSAGHDREKKRYLELSRPFLADLGVTNRQHELIPAMSRKWKQINKFIEVFSHALSSSSLKLDQPIKVADFGSGKGYLTFAIHDYLCNTLQAQGQVTGVELREDMVTLCNNAAAGLEHPGLTFQHGDVRSVAPRALDVMIALHACDIATDYAIHMGIRSGASIIMCSPCCHKQIRLQIQSPSLLKPMLQYGLHMGQQAEMVTDSLRALLLDACGYETKVFEFISLEHTNKNKMILAVKRAEPANPAQLLVRIQELKAFYGISEQCLETLLQADGFLG | not soluble |
